How the values were obtained:
[1] = target: purified recombinant Rac1 Q61L (analyte in SPR) (UniProt P63000 1-192, Q61L); assay: SPR
[2] = target: His-Rac1 Q61L (immobilised in SPR) (UniProt P63000 1-192, Q61L); assay: SPR

Kd [1] [µM]	Kd [2] [µM]	Binder
27	–	GST-CYRI-B RBD (domain or fragment) ESEKEIYNQVNVVLKDAEGILEDLQSYRGAGHEIREAIQHPADEKLQEKAWGAVVPLVGKLKKFYEFSQRLEAALRGLLGALTSTPYSPTQHLEREQALAKQFAEILHFTLRFDELKMTNPAIQNDFSYYRRTLSRMRINNVPAEGENEVNNELANRMSLFYAEATPMLKTLSDATTKFVSENKNLPIENTTDCLSTMASVCRVMLE
–	22	CYRI-B RBD (analyte in SPR) (domain or fragment) ESEKEIYNQVNVVLKDAEGILEDLQSYRGAGHEIREAIQHPADEKLQEKAWGAVVPLVGKLKKFYEFSQRLEAALRGLLGALTSTPYSPTQHLEREQALAKQFAEILHFTLRFDELKMTNPAIQNDFSYYRRTLSRMRINNVPAEGENEVNNELANRMSLFYAEATPMLKTLSDATTKFVSENKNLPIENTTDCLSTMASVCRVMLE

Reference: paper PMC6863750 (Nature cell biology, 2018)
